Measurements: patent publication US20040248211A1, “ICAM-related protein” (priority 1992, published 2004)

What was measured:
[1] = target: T1, Protein 1 (ICAM-R domain 1 fused to ICAM-1) (Homo sapiens, UniProt P05362+P32942, A175T/A179V/A227S/A249V/A265P/D143G/D183H/D240V/E159K/E168G/E234D/F135L/F230V/G202E/M196L/M262R/P127S/P187N/P238T/Q133K/Q164E/Q197R/R211Y/R214Q/R224Q/S145A/S149N/S162K/S180R/S236Q/T148A/T242S/V205E/V220A/W157G/W237G/Y255H); test: FACS binding to COS cell transfectants; conditions: for percent positive COS cell transfectants, Protein 1: antibody 5.0 ug/ml
T1 construct: immunoglobulin-like domain of ICAM-R (residues 1 to 93) fused to ICAM-1 (residue 117 to 532); ICAM-1 residue 117 to 532 (fusion partner in the same polypeptide); expressed in transfected cells; host or cells: COS cells, plasmid pcDNA1Amp.RD1.ID2-5
Description: (§1) FIG. 7 is a diagram of the chimeric proteins whose construction is outlined below. Protein number 1 contains the amino-terminal immunoglobulin-like domain of ICAM-R (residues 1 to 93) fused to ICAM-1 (residue 117 to 532). Protein number 2 contains the first two amino terminal immunoglobulin-like domains of ICAM-R (residues 1 to 190) fused to ICAM-1 (residues 216 to 532). Protein number 3 contains the first three immunoglobulin-like domains of ICAM-R (residues 1 to 291) fused to ICAM-1 (residues 317 to 532).
(§2) For the anti-ICAM-R monoclonal antibody binding assay, COS cells transfected with constructs encoding the ICAM-R chimeric proteins or control constructs were removed from the plates by EDTA treatment and aliquoted at 2.5×10^5 cells per well in a 96-well round bottom plate. Cells were washed 3 times with ice cold washing buffer (PBS containing 1% BSA and 0.05% sodium azide). Anti-ICAM-R monoclonal antibody was applied at 5.0 ug/ml in 50 ul final volume and incubated on ice for 30 minutes. Cells were then washed three times with cold washing buffer and incubated with the FITC labeled secondary antibody (sheep anti-mouse IgG F(ab′)2) at a 1:100 dilution on ice for 30 minutes in dark in 50 ul final volume. After the incubation, cells were washed again for three times in the ice cold washing buffer and resuspended in 200 ul of 1% paraformaldehyde. The samples were analyzed on a Becton-Dickinson FACScan instrument. Results of the assay are given below in Table 5 as percent positive COS cell transfectants, wherein MOPC 21 (IgG1) and UPC 10 (IgG2a) are isotype matched controls, 18E3D is an ICAM-1 specific monoclonal antibody and ICR-1.1 to ICR-9.2 are ICAM-R specific monoclonal antibodies. The reactivities of monoclonal antibodies ICR-1.1 through ICR-9.2 were assayed in a different experiment than monoclonal antibodies ICR-12.1 through ICR-17.1.

[2] = target: T2, Protein 2 (ICAM-R domains 1-2 fused to ICAM-1) (Homo sapiens, UniProt P05362+P32942, A227S/A249V/A265P/D240V/E234D/F230V/M262R/P219L/P238T/R224Q/S236Q/T242S/V220A/W237G/Y255H); test: FACS binding to COS cell transfectants; conditions: antibody 5.0 ug/ml
T2 construct: domains of ICAM-R (residues 1 to 190) fused to ICAM-1 (residues 216 to 532); ICAM-1 residues 216 to 532 (fusion partner in the same polypeptide); expressed in transfected cells; host or cells: COS cells, plasmid pcDNA1Amp.RD1-2.1D3-5
Description: as §1, §2

Monocytes = test: IL-8 release from monocytes; format: cell-based, human; conditions: wells coated 10 μg/ml
Experimental: Monocytes were isolated by elutriation from peripheral blood of normal donors. […] After blocking free sites, the cells were placed into the wells in medium. […] Those cells plated in wells treated with BSA plus or minus LPS were rounded and not spread. After 8 or 18 hours of incubation at 37° C., the medium was removed and assayed for IL-8 immunoreactivity. […] By 18 hours, IL-8 levels in media from ICR monoclonal antibody wells were much elevated over control levels. […] Similar experiments with monocytic cell lines (U937 and HL60) to determine if ICR monoclonal antibody can induce IL-8 release were conducted. U937 cells responded to each of the ICR monoclonal antibody treated wells by releasing IL-8 into the conditioned medium. […] No detectable morphological changes were detected with the U937 or HL60 cells.

[3] = test system: CD4+ CD45RO+ / CD45RA+ T cells and plastic adherent cells; test: SEA proliferation of memory or resting T cells with accessory cells; format: cell-based, human; conditions: immobilized antibody 3 hours
Description: Because both T cells and accessory cells express high levels of ICAM-R, the inhibition of cell-cell contact dependent T cell activation during the response to SEA by ICR-1.1 could be mediated by ICR-1.1 binding to T cells, accessory cells or both. Additionally, because ICAM-R and ICAM-1 differ markedly in their expression on nonactivated T cells, it is possible that anti-ICAM-1 and anti-ICAM-R may inhibit the SEA response by targeting T cell subsets in different states of activation. Because the role of ICAM-R may differ in naive and memory cells, the ability of anti-ICAM-R antibodies to inhibit SEA induced proliferation of CD4^+ CD45RO^+ (“memory”) cells, or CD4^+ CD45RA^+ (“resting”) cells was tested. […] nonadherent PBMC (10^7 cells/ml) were incubated for 1 hour at 4° C. with a cocktail of antibodies (1μg/ml each) containing anti-CD8, anti-CD19, anti-CD11b, anti-HLA-DR (Becton Dickinson) and either anti-CD45RO (Amac) (to obtain CD45RA^+ CD4^+ cells), or anti-CD45RA (Amac) (to obtain CD45RO^+ CD4^+ cells) in coating medium. The cell suspension was washed twice with coating medium to remove unbound antibody and incubated with goat anti-mouse IgG coated magnetic beads. Cells bound to magnetic beads were then removed from the suspension using a strong magnet. […] Two hundred thousand purified memory T cells, resting T cells or plastic adherent cells were incubated on immobilized ICR-1.1, anti-ICAM-1 antibody LB-2 or anti-HLA-I antibody p10.1 (10 μg/ml) (Gerald Nepom, Virginia Mason Research Center, Seattle, Wash.) for 3 hours. The antibody treated memory or resting T cells were removed to clean wells and admixed with 2×10^4 plastic adherent cells. Antibody treated accessory cells were admixed with either untreated memory T cells or untreated resting T-cells. Each reconstituted culture was then stimulated with SEA (10 pg/ml). […]

T1 sequence (P32942+P05362 fused with the stated changes): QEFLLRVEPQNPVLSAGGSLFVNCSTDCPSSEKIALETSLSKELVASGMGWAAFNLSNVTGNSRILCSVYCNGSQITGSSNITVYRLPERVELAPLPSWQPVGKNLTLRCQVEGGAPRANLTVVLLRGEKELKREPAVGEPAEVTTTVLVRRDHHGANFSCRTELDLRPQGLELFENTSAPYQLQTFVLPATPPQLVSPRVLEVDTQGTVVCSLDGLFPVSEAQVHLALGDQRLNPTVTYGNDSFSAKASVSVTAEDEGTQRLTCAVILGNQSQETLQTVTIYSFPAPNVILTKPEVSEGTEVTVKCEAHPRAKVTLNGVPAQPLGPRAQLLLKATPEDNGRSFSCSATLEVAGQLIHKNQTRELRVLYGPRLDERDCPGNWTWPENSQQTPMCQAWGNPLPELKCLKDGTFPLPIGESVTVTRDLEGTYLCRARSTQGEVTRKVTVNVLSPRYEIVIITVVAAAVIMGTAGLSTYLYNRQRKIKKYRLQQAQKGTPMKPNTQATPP
T2 sequence (P32942+P05362 fused with the stated changes): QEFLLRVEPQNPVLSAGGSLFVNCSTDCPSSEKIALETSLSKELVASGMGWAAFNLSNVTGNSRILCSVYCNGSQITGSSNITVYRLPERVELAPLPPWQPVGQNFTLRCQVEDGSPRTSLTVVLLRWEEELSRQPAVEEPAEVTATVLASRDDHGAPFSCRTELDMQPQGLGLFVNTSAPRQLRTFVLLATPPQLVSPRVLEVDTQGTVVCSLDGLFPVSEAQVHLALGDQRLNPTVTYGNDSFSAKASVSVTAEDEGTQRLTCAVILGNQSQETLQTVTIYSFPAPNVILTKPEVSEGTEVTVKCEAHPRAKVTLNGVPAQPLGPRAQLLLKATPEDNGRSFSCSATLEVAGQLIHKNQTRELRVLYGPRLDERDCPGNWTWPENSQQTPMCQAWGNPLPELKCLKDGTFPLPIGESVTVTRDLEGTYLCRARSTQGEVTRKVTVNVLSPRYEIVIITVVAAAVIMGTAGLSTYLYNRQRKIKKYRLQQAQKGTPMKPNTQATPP

Row | Molecule | recognition of hybrid with only ICAM-R domain 1 (domain 1 specific) [1] | percent positive COS cell transfectants, Protein 1 [1] | percent positive COS cell transfectants, Protein 2 [2] | IL-8 level at 18 hours over the level at the 8 hour time point (Monocytes) | CD45RA+ cell proliferation, pretreatment of adherent cells [3] | SEA response, pretreatment of CD45RA+ T cells (FIG. 14) [3] | SEA proliferation, pretreatment of T cells or accessory cells (FIG. 13) ([3]; versus p10.1 control)
1 | ICR-8.1: anti-ICAM-R monoclonal antibody, IgG1, domain 1, ATCC HB 11232 (antibody, V domains shown) VH: EIQLQQTGPELVKPGASVKISCKASGYSFTDCIILWVKQSHGKGLEWIGKINPYFGTTTYNLKFKGKATLTVDKSSSTAHMQLNSLTSEDSAVYYCARKEAYPDAMDYWGQGTSVTVSS VL: DAVMTQTPLSLPVSLGDQASISCRSSQSLVHSNGDTYLHWYLQKPGQSPQLLIYKVSNRFSGVPDRFSGSGSGTDFTLKLSRVEAEDLGVYFCSQSTHVPYTFGGGTKLEIK | recognize the hybrid molecule | 57.34% | 64.25% | two times |  |  | 
2 | ICR-1.1: anti-ICAM-R monoclonal antibody, IgG2a, domain 1, ATCC HB 11053 (antibody, V domains shown) VH: QVQLQQSGAELAKPGASVKMSCKASGYTFTVYWMHWVKQRPGQGLEWIGYINPNTDYTEYNQRFQDKATLTADKSSSTAYMQLSSLTSEDSAVYYCARWGGNSYGLDYWGQGTSVTVSS VL: QIVLTQSPALMSASPGEKVTMTCSASSSVSYIYWYQQKPRSSPKPWIYLTSNLASGVPARFSGSGSGASYSLTISIMEAEDAATYYCQQWKSIPLTFGAGTKLELK | recognize the hybrid molecule | 60.27% | 68.32% | ten times | modest inhibition of CD45RA^+ cell proliferation | did not affect SEA responses | blocked proliferative responses to SEA
